Measured values: US20240287172A1 (SCIRHOM, published 2024)
Changes are numbered by the printed parent chain.

T1: hiR2-FL-M534-T7 (deletion of M534) (human, UniProt Q6PJF5 1-856)
T1 construct: single amino acid deletion
T1 sequence: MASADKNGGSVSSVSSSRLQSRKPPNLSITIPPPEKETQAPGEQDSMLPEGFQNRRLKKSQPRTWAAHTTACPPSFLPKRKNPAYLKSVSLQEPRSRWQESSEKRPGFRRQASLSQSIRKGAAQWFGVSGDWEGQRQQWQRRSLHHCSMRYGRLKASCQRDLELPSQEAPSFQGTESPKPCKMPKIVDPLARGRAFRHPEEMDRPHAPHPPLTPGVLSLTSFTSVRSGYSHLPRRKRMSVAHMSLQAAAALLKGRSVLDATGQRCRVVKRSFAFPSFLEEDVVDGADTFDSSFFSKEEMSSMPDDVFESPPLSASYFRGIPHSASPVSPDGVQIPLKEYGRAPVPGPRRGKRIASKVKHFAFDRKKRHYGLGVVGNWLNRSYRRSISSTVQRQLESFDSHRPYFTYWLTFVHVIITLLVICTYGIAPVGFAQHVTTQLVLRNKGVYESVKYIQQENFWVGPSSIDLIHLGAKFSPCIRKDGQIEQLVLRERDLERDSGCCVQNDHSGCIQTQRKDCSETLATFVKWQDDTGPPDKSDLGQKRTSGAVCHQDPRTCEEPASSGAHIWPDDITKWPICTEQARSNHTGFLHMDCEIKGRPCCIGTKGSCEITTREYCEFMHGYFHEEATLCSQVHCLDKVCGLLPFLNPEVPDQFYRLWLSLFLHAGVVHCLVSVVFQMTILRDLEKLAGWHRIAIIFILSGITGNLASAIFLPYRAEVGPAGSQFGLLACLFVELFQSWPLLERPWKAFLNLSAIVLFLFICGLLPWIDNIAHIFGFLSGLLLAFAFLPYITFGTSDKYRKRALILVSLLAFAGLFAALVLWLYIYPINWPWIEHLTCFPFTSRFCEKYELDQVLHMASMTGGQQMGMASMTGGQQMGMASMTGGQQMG

T2: hiR2-FL-D535-T7 (deletion of D535) (human, UniProt Q6PJF5 1-856)
T2 construct: single amino acid deletion
T2 sequence: T1 sequence with D534M

T3: hiR2-FL-L539A-T7 (human, UniProt Q6PJF5 1-856)
T3 construct: on MEF-DKO cells
T3 sequence: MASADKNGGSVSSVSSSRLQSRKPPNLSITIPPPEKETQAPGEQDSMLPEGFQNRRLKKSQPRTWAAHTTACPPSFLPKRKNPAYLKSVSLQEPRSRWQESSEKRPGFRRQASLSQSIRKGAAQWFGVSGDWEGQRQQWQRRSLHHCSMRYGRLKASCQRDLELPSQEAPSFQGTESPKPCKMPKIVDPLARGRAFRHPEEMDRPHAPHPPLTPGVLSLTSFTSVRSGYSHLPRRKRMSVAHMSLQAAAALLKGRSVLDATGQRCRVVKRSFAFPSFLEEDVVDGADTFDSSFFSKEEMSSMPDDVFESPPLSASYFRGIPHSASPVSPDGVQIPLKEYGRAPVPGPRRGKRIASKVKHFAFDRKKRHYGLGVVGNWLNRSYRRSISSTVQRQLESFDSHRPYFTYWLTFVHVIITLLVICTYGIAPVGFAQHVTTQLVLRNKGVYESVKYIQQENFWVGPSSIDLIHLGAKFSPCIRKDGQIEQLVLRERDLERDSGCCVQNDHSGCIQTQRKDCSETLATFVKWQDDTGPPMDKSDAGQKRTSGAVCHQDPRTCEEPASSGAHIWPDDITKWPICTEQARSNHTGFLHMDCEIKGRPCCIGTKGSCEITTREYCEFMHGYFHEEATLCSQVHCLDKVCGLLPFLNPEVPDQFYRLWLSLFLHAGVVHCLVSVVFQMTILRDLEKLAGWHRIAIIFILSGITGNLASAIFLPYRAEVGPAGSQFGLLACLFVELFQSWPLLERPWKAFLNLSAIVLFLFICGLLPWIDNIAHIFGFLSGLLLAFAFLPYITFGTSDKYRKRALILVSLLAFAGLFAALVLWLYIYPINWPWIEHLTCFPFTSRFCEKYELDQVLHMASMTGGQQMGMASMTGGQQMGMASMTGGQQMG

B1: antibody 16 (antibody, V domains shown)
VH: QVTLKESGPGILQPSQTLSLTCSFSGFSLSTFALGVGWIRQPSGRGLEWLAHIWWDDDKYYNPALKSRLTISKDTSKNHVFLKIANVDTADTATYYCARITTYYYGMDYWGQGTSVTVSS
VL: DIVLSQSPATLSVTPGDSVSLFCRASQSIGNHLHWYQQESHASPRLLIKYASQSISGIPSRFSGSGSGTDFTLSINSVETEDFGMYFCQQSYNWPLTFGAGTKLELK
notes: mouse IgG, kappa light chain; also called clone #16; purified antibody 16
B2: antibody 3 (antibody, V domains shown)
VH: QVTLKESGPGILQPSQTLSLTCSFSGFSLTTFAMGIGWVRQPSGKGLEWLAHIWWDGEKYNNPVLKSRLTISKDTSKNQVFLRIANVDTPDTATYYCARISSIYYIIDNWGQGTSVTVSS
VL: B1 VL with S5T, D17H, F22S, G30S, H32N, Q38K, E39K, A42E, A51V
notes: mouse IgG, kappa light chain; also called clone #3; purified antibody 3
B3: antibody 5 (antibody, V domains shown)
VH: QVTLKESGPGILQPSQTLSLTCSFSGFSLSTFGMGVGWIRQPSGKGLEWLAHIWWDDEKYYNSALKSRLTISKATSKNQAFLKIANVDTADTATYYCARISNYGSNYWYFNVWGTGTTVTVSS
VL: QVVLTQSPALMSASPGEKVTMTCSAGSSVSCMYWYQQKPGSSPRVLIYDTSNLASGVPARFTGSGSGTSYSLTISRMEAEDAASYYCQQWNSYPLTFGAGTKLELK
notes: mouse IgG, kappa light chain; also called clone #5; purified antibody 5
B4: antibody 42 (antibody, V domains shown)
VH: B3 VH with F24L, M34R, S63P, A74D, A80V, K83R, S101Q, N111D
VL: LIVLTQSPAIMSASPGEKVTMTCGATSRISYMFWYQQKPGSSPRVLIYDTSNLASGVPVRFSGSGSGTSYSLTISRVEAEDVATYYCQQWNSYPLTFGAGTKLELK
notes: mouse IgG, kappa light chain; also called clone #42; purified antibody 42
B5: antibody 44 (antibody, V domains shown)
VH: B3 VH with G44E, E58D, S63P, A74D, A80I, A85T, D91E, A98S, S101G, N111D
VL: QIVLTQSPAVMSASPGEKVTMTCTASSSVYYMYWYQQTPGSSPRLLIYDTSNLASGVPVRFSGSGSGTSYSLTISRMEAEDAATYYCQQWNTYPLTFGAGTKLELK
notes: mouse IgG, kappa light chain; also called clone #44; purified antibody 44
B6: antibody 43 (antibody, V domains shown)
VH: B3 VH with T3A, P42S, H52N, E58D, S63P, A74D, T75A, S101G, N111D
VL: B4 VL with L1Q, K18R, G24S, T26N, F33Y, V45L, V77M, V82A, Y86N, N91S
notes: mouse IgG, kappa light chain; also called clone #43; purified antibody 43
B7: antibody 22 (antibody, V domains shown)
VH: B3 VH with A80V
VL: B3 VL with C31Y, S84T
notes: mouse IgG, kappa light chain; also called clone #22; purified antibody 22
B8: antibody 48 (antibody, V domains shown)
VH: QVQLQQSGTELVRPGTSVKVSCKASGYAFTNYLIEWVKQRPGQGLEWIGVINPGSGFTKYNEKFKGKATLTADKSSSTVYMHLSSLTSEDSAVYFCARGLYRAMDYWGQGTSVTVSS
VL: DIQMTQSPASQSASLGESVTITCLASQTIATWLAWYQQKPGKSPQLLIYGATTLADGVPSRFSGGGSGTKFSFKISSLQAEDFVSYYCQQLYSTPYTFGGGTKLEIK
notes: mouse IgG, kappa light chain; also called clone #48; purified antibody 48
B9: antibody 50 (antibody, V domains shown)
VH: B8 VH with T9A, T16A, T30S, V79A, H82Q
VL: B8 VL with A30G, G50A, T52A, T53S, S85N, L91I
notes: mouse IgG, kappa light chain; also called clone #50; purified antibody 50
B10: antibody 34 (antibody, V domains shown)
VH: QVTLKESGPGILQPSQTLSLTCSFSGFSLSTFSLGVGWIRQSSGKGLEWLAHIWWDDEKYYNPALKSRLTISKDTSKNQVFLKIANVDAADTATYYCARAYYSKSYYALDYWGQGTSVTVSS
VL: DIQMTQSPSSLSASLGERVSLTCRASQEISGYLSWLQQKPDGTIKRLIYAASTLDSGVPKRFSGSRSGSDYSLAISSLESEDFADYYCLQYANFPFTFGSGTKLEIK
notes: mouse IgG, kappa light chain; also called clone #34; purified antibody 34

Experiments:
[1] = target: T1, hiR2-FL-M534-T7 (deletion of M534); test: FACS on MEF-DKO cells
[2] = target: T2, hiR2-FL-D535-T7 (deletion of D535); test: FACS on MEF-DKO cells
mouse iR1 wild type = target: T4, mouse iR1 wild type (mouse); test: FACS, MEF-DKO cells, 3 µg/ml
T4 construct: wild type, expressed on cells; also called mouse iRhom1 wild type

hiR2-FL-L539A-T7 = target: T3, hiR2-FL-L539A-T7; test: FACS on MEF-DKO cells

| Binder | binding result [1] | binding result [2] | loss of binding vs wild type (mouse iR1 wild type) [%] | binding result (hiR2-FL-L539A-T7) |
| --- | --- | --- | --- | --- |
| B1 | no binding (tested: 3 µg/ml) | no binding (tested: 3 µg/ml) | ≥ 95 |  |
| B2 | no binding (tested: 3 µg/ml) | no binding (tested: 3 µg/ml) | ≥ 95 |  |
| B3 | no binding (tested: 3 µg/ml) | no binding (tested: 3 µg/ml) | ≥ 95 | no binding (tested: 3 µg/ml) |
| B4 | no binding (tested: 3 µg/ml) | no binding (tested: 3 µg/ml) | ≥ 95 | no binding (tested: 3 µg/ml) |
| B5 | no binding (tested: 3 µg/ml) | no binding (tested: 3 µg/ml) | ≥ 95 | no binding (tested: 3 µg/ml) |
| B6 | no binding (tested: 3 µg/ml) | no binding (tested: 3 µg/ml) | ≥ 95 | no binding (tested: 3 µg/ml) |
| B7 | no binding (tested: 3 µg/ml) | no binding (tested: 3 µg/ml) | ≥ 95 | no binding (tested: 3 µg/ml) |
| B8 |  |  | ≥ 60 |  |
| B9 |  |  | ≥ 95 |  |
| B10 | no binding (tested: 3 µg/ml) | no binding (tested: 3 µg/ml) | ≥ 95 | no binding (tested: 3 µg/ml) |
